Laboratory results from PMC4882453, “Monoacylglycerol Lipases Act as Evolutionarily Conserved Regulators of Non-oxidative Ethanol Metabolism” (The Journal of Biological Chemistry, 2016).

Substrate: CCCCCCCCCCCCCCCC(=O)OCC
Assay: release of fatty acid, substrate saturation, nonlinear regression
Type: biochemical, Saccharomyces cerevisiae
Conditions: CHAPS-emulsified substrate, Bistris propane, pH 7, 1 mM EDTA, 37 °C, 30 min

B1: His6-tagged Yju3p (Saccharomyces cerevisiae S288C) (protein)
chain: MAPYPYKVQTTVPELQYENFDGAKFGYMFWPVQNGTNEVRGRVLLIHGFGEYTKIQFRLMDHLSLNGYESFTFDQRGAGVTSPGRSKGVTDEYHVFNDLEHFVEKNLSECKAKGIPLFMWGHSMGGGICLNYACQGKHKNEISGYIGSGPLIILHPHTMYNKPTQIIAPLLAKFLPRVRIDTGLDLKGITSDKAYRAFLGSDPMSVPLYGSFRQIHDFMQRGAKLYKNENNYIQKNFAKDKPVIIMHGQDDTINDPKGSEKFIQDCPSADKELKLYPGARHSIFSLETDKVFNTVFNDMKQWLDKHTTTEAKP
notes: expression construct described previously (YJU3 for the GFP fusions was cloned from BY4742 genomic DNA)
Protein B1 has a Km of 780 µM.
